Assay results taken from patent US20190375786A1, “STABLE PEPTIDES AND METHODS OF USE THEREOF” (Fred Hutchinson Cancer Research Center, priority 2016, published 2019).

Legend:
trypsin = trypsin (Sus scrofa, UniProt P00761); experiment: Trypsin digestion resistance of soluble peptide, RP-HPLC; assay type: in vitro ADME, porcine; set-up: purchased Sigma Aldrich 6567; details: 500 U/ml trypsin, 30 minutes at 37.5° C.; HPLC peak vs untreated peptide
In short: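 12.5 μg soluble peptide digested with 500 U/ml porcine trypsin in PBS, 30 min at 37.5° C; quenched with soybean trypsin inhibitor, with or without 10 mM DTT reduction afterwards. Intact peptide assessed by C-18 RP-HPLC, 5-45% acetonitrile/0.1% TFA gradient over 10 min.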

pepsin = pepsin (Sus scrofa, UniProt P00791); experiment: Pepsin digestion resistance in simulated gastric fluid, RP-HPLC; assay type: in vitro ADME, porcine; set-up: purchased Sigma Aldrich P7012; details: 500 U/ml pepsin in SGF pH 1.05, 30 minutes at 37.5° C.; HPLC peak vs untreated peptide
Chain of pepsin (P00791 60-385): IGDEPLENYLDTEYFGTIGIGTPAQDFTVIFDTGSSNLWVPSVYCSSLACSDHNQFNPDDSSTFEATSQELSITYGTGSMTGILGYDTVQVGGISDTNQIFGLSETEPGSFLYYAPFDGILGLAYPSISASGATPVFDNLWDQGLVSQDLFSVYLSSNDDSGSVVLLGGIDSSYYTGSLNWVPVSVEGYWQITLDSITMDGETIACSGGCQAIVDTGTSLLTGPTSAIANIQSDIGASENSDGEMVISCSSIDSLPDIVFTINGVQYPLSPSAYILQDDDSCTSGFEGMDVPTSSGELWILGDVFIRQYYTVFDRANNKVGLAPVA
In short: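 Peptide (12.5 μg) incubated 30 min at 37.5 °C with or without 500 U/ml pepsin in simulated gastric fluid (pH 1.05; 2% NaCl in 0.7% HCl); some reactions quenched with 100 mM Tris and 10 mM DTT. Intact peptide followed by C-18 RP-HPLC (5–45% acetonitrile/0.1% TFA over 10 min) at 214 and 280 nm.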

[1] = Resistance to reduction by DTT, RP-HPLC; assay type: physicochemical; details: 10 mM DTT in PBS, room temperature, 30 minutes; HPLC peak vs untreated peptide
In short: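 Peptide (12.5 μg from a 2 mg/ml stock, or 0.015 mM final in PBS) was held 30 min at room temperature with or without 10 mM DTT. Reduced and non-reduced forms were compared by C-18 RP-HPLC using a 5–45% acetonitrile/0.1% TFA gradient over 10 min, with detection at 214 and 280 nm.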

[2] = Resistance to elevated temperature, HPLC; assay type: physicochemical; details: HPLC peak vs untreated peptide; for Resistance to Temperature (75° C.): 75° C. for one hour; for Resistance to Temperature (100° C.): 100° C. for one hour
In short: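 Peptides were incubated at room temperature, 70° C or 100° C for one hour in ddH2O; another protocol used 70° C, 75° C or 100° C for one hour in 0.5 mM PBS, then pelleting and analysis of the supernatant. Remaining peptide was measured by C-18 RP-HPLC, 5–45% acetonitrile/0.1% TFA over 10 min.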

Chain of trypsin (P00761 9-231): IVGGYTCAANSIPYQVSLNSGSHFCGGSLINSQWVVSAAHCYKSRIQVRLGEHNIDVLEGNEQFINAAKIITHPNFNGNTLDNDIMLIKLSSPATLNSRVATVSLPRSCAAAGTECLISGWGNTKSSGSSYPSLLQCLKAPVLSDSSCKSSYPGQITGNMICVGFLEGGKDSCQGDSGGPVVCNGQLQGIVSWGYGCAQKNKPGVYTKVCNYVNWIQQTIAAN

Substance | Resistance to Trypsin (500 U/ml) (trypsin) | Resistance to Pepsin (500 U/ml) (pepsin) | Resistance to DTT Reduction (10 mM) [1] | Resistance to Temperature (75° C.) [2] | Resistance to Temperature (100° C.) [2]
21 (GSRCQLQGFNCVVRSYGLPTIPCCRGLTCRSYFPGSTYGRCQRY) [compound 21] | Moderate (A peptide classified as medium indicates that about half (between 25% and 75%) of the HPLC peak of the treated peptide disappeared as compared to the HPLC peak of the untreated peptide) | High (A peptide classified as high indicates that the majority (at least 75%) of the HPLC peak of the treated peptide is still present as compared to the HPLC peak of the untreated peptide) | Low (A peptide classified as low indicates that the majority (over 75%) of the HPLC peak of the treated peptide disappeared as compared to the HPLC peak of the untreated peptide) | High (A peptide classified as high indicates that the majority (at least 75%) of the HPLC peak of the treated peptide is still present as compared to the HPLC peak of the untreated peptide) | Low (A peptide classified as low indicates that the majority (over 75%) of the HPLC peak of the treated peptide disappeared as compared to the HPLC peak of the untreated peptide)
20 (GSGHACYRNCWREGNDEETCKERC) [compound 20] | High (A peptide classified as high indicates that the majority (at least 75%) of the HPLC peak of the treated peptide is still present as compared to the HPLC peak of the untreated peptide) | High (A peptide classified as high indicates that the majority (at least 75%) of the HPLC peak of the treated peptide is still present as compared to the HPLC peak of the untreated peptide) | Low (A peptide classified as low indicates that the majority (over 75%) of the HPLC peak of the treated peptide disappeared as compared to the HPLC peak of the untreated peptide) | High (A peptide classified as high indicates that the majority (at least 75%) of the HPLC peak of the treated peptide is still present as compared to the HPLC peak of the untreated peptide) | Moderate (A peptide classified as medium indicates that about half (between 25% and 75%) of the HPLC peak of the treated peptide disappeared as compared to the HPLC peak of the untreated peptide)
16 (GSSCAKPGEMCMRIKCCDGQCGCNRGTGRCFCK) [compound 16] | Low (A peptide classified as low indicates that the majority (over 75%) of the HPLC peak of the treated peptide disappeared as compared to the HPLC peak of the untreated peptide) | High (A peptide classified as high indicates that the majority (at least 75%) of the HPLC peak of the treated peptide is still present as compared to the HPLC peak of the untreated peptide) | Low (A peptide classified as low indicates that the majority (over 75%) of the HPLC peak of the treated peptide disappeared as compared to the HPLC peak of the untreated peptide) | High (A peptide classified as high indicates that the majority (at least 75%) of the HPLC peak of the treated peptide is still present as compared to the HPLC peak of the untreated peptide) | Low (A peptide classified as low indicates that the majority (over 75%) of the HPLC peak of the treated peptide disappeared as compared to the HPLC peak of the untreated peptide)
49 (GSSFGLCRLRRGFCARGRCRFPSIPIGRCSRFVQCCRRVW) [compound 49] | Low (A peptide classified as low indicates that the majority (over 75%) of the HPLC peak of the treated peptide disappeared as compared to the HPLC peak of the untreated peptide) | High (A peptide classified as high indicates that the majority (at least 75%) of the HPLC peak of the treated peptide is still present as compared to the HPLC peak of the untreated peptide) | Low (A peptide classified as low indicates that the majority (over 75%) of the HPLC peak of the treated peptide disappeared as compared to the HPLC peak of the untreated peptide) | High (A peptide classified as high indicates that the majority (at least 75%) of the HPLC peak of the treated peptide is still present as compared to the HPLC peak of the untreated peptide) | Low (A peptide classified as low indicates that the majority (over 75%) of the HPLC peak of the treated peptide disappeared as compared to the HPLC peak of the untreated peptide)
48 (GSGIGDPVTCLKSGAICHPVFCPRRYKQIGTCGLPGTKCCKKP) [compound 48] | Low (A peptide classified as low indicates that the majority (over 75%) of the HPLC peak of the treated peptide disappeared as compared to the HPLC peak of the untreated peptide) | High (A peptide classified as high indicates that the majority (at least 75%) of the HPLC peak of the treated peptide is still present as compared to the HPLC peak of the untreated peptide) | Low (A peptide classified as low indicates that the majority (over 75%) of the HPLC peak of the treated peptide disappeared as compared to the HPLC peak of the untreated peptide) | High (A peptide classified as high indicates that the majority (at least 75%) of the HPLC peak of the treated peptide is still present as compared to the HPLC peak of the untreated peptide) | High (A peptide classified as high indicates that the majority (at least 75%) of the HPLC peak of the treated peptide is still present as compared to the HPLC peak of the untreated peptide)
9 (GSQFCGTNGKPCVNGQCCGALRCVVTYHYADGVCLKMNP) [compound 9] | Moderate (A peptide classified as medium indicates that about half (between 25% and 75%) of the HPLC peak of the treated peptide disappeared as compared to the HPLC peak of the untreated peptide) | High (A peptide classified as high indicates that the majority (at least 75%) of the HPLC peak of the treated peptide is still present as compared to the HPLC peak of the untreated peptide) | Low (A peptide classified as low indicates that the majority (over 75%) of the HPLC peak of the treated peptide disappeared as compared to the HPLC peak of the untreated peptide) | High (A peptide classified as high indicates that the majority (at least 75%) of the HPLC peak of the treated peptide is still present as compared to the HPLC peak of the untreated peptide) | Low (A peptide classified as low indicates that the majority (over 75%) of the HPLC peak of the treated peptide disappeared as compared to the HPLC peak of the untreated peptide)
19 (GSQDKCKKVYENYPVSKCQLANQCNYDCKLDKHARSGECFYDEKRNLQCICDYCEY) [compound 19] | High (A peptide classified as high indicates that the majority (at least 75%) of the HPLC peak of the treated peptide is still present as compared to the HPLC peak of the untreated peptide) | High (A peptide classified as high indicates that the majority (at least 75%) of the HPLC peak of the treated peptide is still present as compared to the HPLC peak of the untreated peptide) | Low (A peptide classified as low indicates that the majority (over 75%) of the HPLC peak of the treated peptide disappeared as compared to the HPLC peak of the untreated peptide) | High (A peptide classified as high indicates that the majority (at least 75%) of the HPLC peak of the treated peptide is still present as compared to the HPLC peak of the untreated peptide) | Moderate (A peptide classified as medium indicates that about half (between 25% and 75%) of the HPLC peak of the treated peptide disappeared as compared to the HPLC peak of the untreated peptide)
4 (GSGDCLPHLKRCKENNDCCSKKCKRRGANPEKRCR) [compound 4] | Low (A peptide classified as low indicates that the majority (over 75%) of the HPLC peak of the treated peptide disappeared as compared to the HPLC peak of the untreated peptide) | High (A peptide classified as high indicates that the majority (at least 75%) of the HPLC peak of the treated peptide is still present as compared to the HPLC peak of the untreated peptide) | Low (A peptide classified as low indicates that the majority (over 75%) of the HPLC peak of the treated peptide disappeared as compared to the HPLC peak of the untreated peptide) | High (A peptide classified as high indicates that the majority (at least 75%) of the HPLC peak of the treated peptide is still present as compared to the HPLC peak of the untreated peptide) | Low (A peptide classified as low indicates that the majority (over 75%) of the HPLC peak of the treated peptide disappeared as compared to the HPLC peak of the untreated peptide)
